Data on 1 substance can be found in PMC3232247.

For this experiment, the target named is T1, RGSZ2 RH region (RGS box), recombinant, GST-free (murine).
T1 sequence (Q9QZB0 whole entry, looked up): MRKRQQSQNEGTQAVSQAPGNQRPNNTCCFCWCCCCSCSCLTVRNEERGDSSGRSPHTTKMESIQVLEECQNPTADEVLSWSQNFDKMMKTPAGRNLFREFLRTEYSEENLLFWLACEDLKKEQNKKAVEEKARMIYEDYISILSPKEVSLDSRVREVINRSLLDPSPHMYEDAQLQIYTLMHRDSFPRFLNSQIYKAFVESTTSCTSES

Regarding “SUMO1 (Small Ubiquitin-like MOdifier 1) (from UniProt P63165 1-97) (natural protein)”, the k cat of GTP hydrolysis by Gαi, single turnover, with RGSZ2 RH and free SUMO1 (4.0 with RH without SUMO1; 2.2 for Gαi alone) was found to be 0.0417 s⁻¹.
